Data reported in patent US20250002566A1 (FUNDA O OSWALDO CRUZ, published 2025).

Legend:
[1] = molecular target: T1, ZIKV Envelope (E) protein, recombinant, in its dimeric form (Native Antigen, UK) (Zika virus); experiment: estimated from MST concentrations at maximum binding (ca. 3x10^13 E dimer molecules with ca. 8x10^12 ZVPA3 molecules)
T1 chain: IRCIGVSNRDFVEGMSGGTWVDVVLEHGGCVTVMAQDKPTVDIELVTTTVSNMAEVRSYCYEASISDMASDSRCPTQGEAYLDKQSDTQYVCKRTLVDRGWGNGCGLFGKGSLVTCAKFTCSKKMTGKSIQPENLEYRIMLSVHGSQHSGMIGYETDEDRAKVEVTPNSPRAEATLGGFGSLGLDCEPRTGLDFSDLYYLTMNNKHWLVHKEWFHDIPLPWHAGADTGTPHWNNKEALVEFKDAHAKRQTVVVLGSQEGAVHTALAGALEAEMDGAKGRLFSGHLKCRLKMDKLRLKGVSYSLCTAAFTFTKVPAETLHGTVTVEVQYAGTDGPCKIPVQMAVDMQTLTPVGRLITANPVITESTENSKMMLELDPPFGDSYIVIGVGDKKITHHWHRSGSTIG

[2] = molecular target: DENV1 envelope (E) protein on virus particles (strain PE/97-42735) (Dengue virus 1); experiment: cell-based or functional assay
[3] = molecular target: DENV2 envelope (E) protein on virus particles (strain PE/95-3808) (Dengue virus 2); experiment: cell-based or functional assay
[4] = molecular target: T1, ZIKV Envelope (E) protein, recombinant, …; experiment: microscale thermophoresis (MST), 150 nM dye-labelled ZIKV E, ZVPA3 titrated in 16 serial 1:2 dilutions, three independent experiments
[5] = molecular target: T1, ZIKV Envelope (E) protein, recombinant, …; experiment: thermal unfolding of the ZVPA3-E(Dimer) complex at the estimated stoichiometry, compared with ZVPA3 alone

B1: ZVPA3 (designed binder)
chain: MGSSHHHHHHSSGLVPRGSHMAKGDPHVLLTTSAGNIELELDSQKAPVSVQNFLDYVNNGFYNNTTFHSVIPGYMIQGGGYTEDMQQKQPNPPIKNEADNGLRNTRGTIAMMRTEDKDSATSQFFINVADNAYADHGQTRYGFAVFGKVVKGMDVADKISQVPTHDVGPYQSVPSKPVVILSATVLPGSGC
notes: Produced as a monomer, ca. 20 kDa; In the MST with virus particles ZVPA3 carried the RED NT-647-NHS dye; The crystal structure of ZVPA3 alone is PDB 7ZFM; also called ZVAP3; designed protein
[1]
  stoichiometry ratio ZVPA3:E(Dimer): 3.75 E(Dimer) per ZVPA3
[2]
  EC50, plaque reduction neutralization test (PRNT) of DENV1 on Vero cells: 870 nM
[3]
  EC50, plaque reduction neutralization test (PRNT) of DENV2 on Vero cells: 980 nM
[4]
  Kd: 86.6 nM
[5]
  stability gain of the complex against ZVPA3 alone (thermal unfolding): ~5 ° C.
